{
  "source": "paper PMC9468356",
  "about": "“Kinetic compartmentalization by unnatural reaction for itaconate production” (Nature Communications, 2022)",
  "key": {"[1]": {"substrate": "O=C(O)/C=C(/CC(=O)O)C(=O)O", "test": "HPLC end-point assay", "type": "biochemical, Escherichia coli", "settings": "2 mM Tris-HCl, 37 °C, 10 min, 0.05-1.0 mM substrate", "description": "(§1) HPLC end-point assay on PrpD"}, "[2]": {"substrate": "CC(C(=O)O)C(O)(CC(=O)O)C(=O)O", "test": "HPLC end-point assay", "type": "biochemical, Escherichia coli", "settings": "2 mM Tris-HCl, 37 °C, 10 min, 0.1-1 mM substrate", "description": "as §1"}},
  "data": [
    {"protein": "PrpD (Escherichia coli K-12; G111T/W110V) (protein, 6xHis-tagged, cloned from E. coli W into pACYCduet-1, purified anaerobically by His-tag kit) SAQINNIRPEFDREIVDIVDYVMNYEISSKVAYDTAHYCLLDTLGCGLEALEYPACKKLLGPIVPGTVVPNGVRVPGTQFQLDPVQAAFNIGAMIRWLDFNDTWLAAEVTHPSDNLGGILATADWLSRNAVASGKAPLTMKQVLTAMIKAHEIQGCIALENSFNRVGLDHVLLVKVASTAVVAEMLGLTREEILNAVSLAWVDGQSLRTYRHAPNTGTRKSWAAGDATSRAVRLALMAKTGEMGYPSALTAPVWGFYDVSFKGESFRFQRPYGSYVMENVLFKISFPAEFHSQTAVEAAMTLYEQMQAAGKTAADIEKVTIRTHEACIRIIDKKGPLNNPADRDHCIQYMVAIPLLFGRLTAADYEDNVAQDKRIDALREKINCFEDPAFTADYHDPEKRAIANAITLEFTDGTRFEEVVVEYPIGHARRRQDGIPKLVDKFKINLARQFPTRQQQRILEVSLDRARLEQMPVNEYLDLYVI", "values": [
      {"measurement": "Km", "setting": "[1]", "result": "1720 ± 250", "unit": "µM"},
      {"measurement": "kcat", "setting": "[1]", "result": "172 ± 20", "unit": "s⁻¹"},
      {"measurement": "kcat/Km", "setting": "[1]", "result": "101000 ± 3180", "unit": "M⁻¹ s⁻¹"},
      {"measurement": "Km", "setting": "[2]", "result": "1930 ± 210", "unit": "µM"},
      {"measurement": "kcat", "setting": "[2]", "result": "0.023 ± 0.008", "unit": "s⁻¹"},
      {"measurement": "kcat/Km", "setting": "[2]", "result": "12 ± 6", "unit": "M⁻¹ s⁻¹"}
    ]},
    {"protein": "PrpD (Escherichia coli K-12) (protein, 6xHis-tagged, cloned from E. coli W into pACYCduet-1, purified anaerobically by His-tag kit) SAQINNIRPEFDREIVDIVDYVMNYEISSKVAYDTAHYCLLDTLGCGLEALEYPACKKLLGPIVPGTVVPNGVRVPGTQFQLDPVQAAFNIGAMIRWLDFNDTWLAAEWGHPSDNLGGILATADWLSRNAVASGKAPLTMKQVLTAMIKAHEIQGCIALENSFNRVGLDHVLLVKVASTAVVAEMLGLTREEILNAVSLAWVDGQSLRTYRHAPNTGTRKSWAAGDATSRAVRLALMAKTGEMGYPSALTAPVWGFYDVSFKGESFRFQRPYGSYVMENVLFKISFPAEFHSQTAVEAAMTLYEQMQAAGKTAADIEKVTIRTHEACIRIIDKKGPLNNPADRDHCIQYMVAIPLLFGRLTAADYEDNVAQDKRIDALREKINCFEDPAFTADYHDPEKRAIANAITLEFTDGTRFEEVVVEYPIGHARRRQDGIPKLVDKFKINLARQFPTRQQQRILEVSLDRARLEQMPVNEYLDLYVI", "values": [
      {"measurement": "Km", "setting": "[1]", "result": "700 ± 100", "unit": "µM"},
      {"measurement": "kcat", "setting": "[1]", "result": "119 ± 13.4", "unit": "s⁻¹"},
      {"measurement": "kcat/Km", "setting": "[1]", "result": "171000 ± 5650", "unit": "M⁻¹ s⁻¹"},
      {"measurement": "Km", "setting": "[2]", "result": "960 ± 850", "unit": "µM"},
      {"measurement": "kcat", "setting": "[2]", "result": "0.045 ± 0.025", "unit": "s⁻¹"},
      {"measurement": "kcat/Km", "setting": "[2]", "result": "75 ± 54", "unit": "M⁻¹ s⁻¹"}
    ]},
    {"protein": "PrpD (Escherichia coli K-12; I331L/W110V) (protein, 6xHis-tagged, cloned from E. coli W into pACYCduet-1, purified anaerobically by His-tag kit) SAQINNIRPEFDREIVDIVDYVMNYEISSKVAYDTAHYCLLDTLGCGLEALEYPACKKLLGPIVPGTVVPNGVRVPGTQFQLDPVQAAFNIGAMIRWLDFNDTWLAAEVGHPSDNLGGILATADWLSRNAVASGKAPLTMKQVLTAMIKAHEIQGCIALENSFNRVGLDHVLLVKVASTAVVAEMLGLTREEILNAVSLAWVDGQSLRTYRHAPNTGTRKSWAAGDATSRAVRLALMAKTGEMGYPSALTAPVWGFYDVSFKGESFRFQRPYGSYVMENVLFKISFPAEFHSQTAVEAAMTLYEQMQAAGKTAADIEKVTIRTHEACIRLIDKKGPLNNPADRDHCIQYMVAIPLLFGRLTAADYEDNVAQDKRIDALREKINCFEDPAFTADYHDPEKRAIANAITLEFTDGTRFEEVVVEYPIGHARRRQDGIPKLVDKFKINLARQFPTRQQQRILEVSLDRARLEQMPVNEYLDLYVI", "values": [
      {"measurement": "Km", "setting": "[1]", "result": "1520 ± 80", "unit": "µM"},
      {"measurement": "kcat", "setting": "[1]", "result": "96.3 ± 4.55", "unit": "s⁻¹"},
      {"measurement": "kcat/Km", "setting": "[1]", "result": "63600 ± 3330", "unit": "M⁻¹ s⁻¹"},
      {"measurement": "Km", "setting": "[2]", "result": "1720 ± 540", "unit": "µM"},
      {"measurement": "kcat", "setting": "[2]", "result": "0.035 ± 0.009", "unit": "s⁻¹"},
      {"measurement": "kcat/Km", "setting": "[2]", "result": "21 ± 2", "unit": "M⁻¹ s⁻¹"}
    ]},
    {"protein": "PrpD (Escherichia coli K-12; G111T/I331L/W110V) (protein, 6xHis-tagged, cloned from E. coli W into pACYCduet-1, purified anaerobically by His-tag kit) SAQINNIRPEFDREIVDIVDYVMNYEISSKVAYDTAHYCLLDTLGCGLEALEYPACKKLLGPIVPGTVVPNGVRVPGTQFQLDPVQAAFNIGAMIRWLDFNDTWLAAEVTHPSDNLGGILATADWLSRNAVASGKAPLTMKQVLTAMIKAHEIQGCIALENSFNRVGLDHVLLVKVASTAVVAEMLGLTREEILNAVSLAWVDGQSLRTYRHAPNTGTRKSWAAGDATSRAVRLALMAKTGEMGYPSALTAPVWGFYDVSFKGESFRFQRPYGSYVMENVLFKISFPAEFHSQTAVEAAMTLYEQMQAAGKTAADIEKVTIRTHEACIRLIDKKGPLNNPADRDHCIQYMVAIPLLFGRLTAADYEDNVAQDKRIDALREKINCFEDPAFTADYHDPEKRAIANAITLEFTDGTRFEEVVVEYPIGHARRRQDGIPKLVDKFKINLARQFPTRQQQRILEVSLDRARLEQMPVNEYLDLYVI", "values": [
      {"measurement": "Km", "setting": "[1]", "result": "720 ± 100", "unit": "µM"},
      {"measurement": "kcat", "setting": "[1]", "result": "81.8 ± 14.1", "unit": "s⁻¹"},
      {"measurement": "kcat/Km", "setting": "[1]", "result": "114000 ± 14600", "unit": "M⁻¹ s⁻¹"},
      {"measurement": "Km", "setting": "[2]", "result": "1960 ± 210", "unit": "µM"},
      {"measurement": "kcat", "setting": "[2]", "result": "0.024 ± 0.008", "unit": "s⁻¹"},
      {"measurement": "kcat/Km", "setting": "[2]", "result": "13 ± 5", "unit": "M⁻¹ s⁻¹"}
    ]}
  ]
}
